Test results published in the RNAGym collection of RNA variant scans (doi:10.1073/pnas.2313332121).

B1: TPR t1 (parent)
chain: GACCAAUCUGCCCUCAGAGCUCGAGAACAUCUUCGGAUGCAGAGGAGGCAGGCUUCGGUGGCGCGAUAGCGCCAACGUCCUCAACCUCCAAUGCAUCCCACCACAUGAUGAUGCCUGAAGAGCCUUGGUUUUUUG

Variants of: B1
Test: polymerase ribozyme fitness, log enrichment relative to wild type (log ratio); higher = more active; in vitro selection for triplet polymerase activity
Method in brief: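 PCR was used to build mutant libraries for each subunit of a heterodimeric triplet polymerase ribozyme, which were then transcribed. A single in vitro selection round, in triplicate, used a frozen incubation at −7 °C and recovered extended constructs by gel excision, streptavidin beads and RT-PCR. Fitness is the logarithm of genotype enrichment relative to wild-type enrichment, averaged over replicates with inverse-variance weights. The logarithm is base 2, and after Illumina sequencing only genotypes with ≥10 input reads and ≥1 read per output were kept.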

| Variant | polymerase ribozyme fitness (log ratio) |
| --- | --- |
| A43G A50U C62A A90G U131A | -5.99 |
| G45A G60A G110C | -4.86 |
| A43G G71C U87G | -4.59 |
| A43U U55A C72A G127A | -2.75 |
| G44U A84U A118G | -2.17 |
| G44U U54A U55C | -2.01 |
| A43G G69A | -6.04 |
| G45U C49A | -0.895 |
| G44U G52C C82G G113A C124U | -3.3 |
| A43U G110C | -5.24 |
| A43U C49U G61A G113C C123U | -3.66 |
| G44U G48A C86U U92A | -4.3 |
| G45C G71A C73U C86A U109A | -6.99 |
| A43U G63U U134G | -3.02 |
| A43U C72U | -1.17 |
| G44U C97G G113A | -5.15 |
| G44C C98U | -2.37 |
| G45A A46C C49U C101A U112G U131A | -5.02 |
| A43C U112G | -2.77 |
| G45U C73U C98U A111G U125A | -6.59 |
| A43U C62U G77A U126A | -5.02 |

| Variant | polymerase ribozyme fitness (log ratio) |
| --- | --- |
| G45C G128C | -4.18 |
| A43U C99A C101G G110A | -7.09 |
| G45U C56A U59G C101G G120A G128A G135A | -3.75 |
| G45U C56U U81G C101G C114A | -5.46 |
| G45C G60C C79A | -1.42 |
| A43G G120U | -1.47 |
| A43U U96A A121U | 0.867 |
| G44U G71C G93A | -3.04 |
| A43G G60A C79U G93A | -2.95 |
| G45C A66U C79G C82U | -3.83 |
| G44C C53U C56U C115U G117U G135A | -3.91 |
| A43U U87G A91C A95G A118G | -1.27 |
| G44U G61A C99U | -4.01 |
| G45C G48C | -2.05 |
| G44C U55C | -1.02 |
| G44U G63C C72U A111U | -5.44 |
| G44U G77A C101A | -1.37 |
| G44C C64U A111G U133A | -0.585 |
| G45U C72G | -1.73 |
| G45A C102U G120C | -1.47 |
| G45U C115U | -2.6 |

| Variant | polymerase ribozyme fitness (log ratio) |
| --- | --- |
| G45C G58A | -0.146 |
| G44U G45U G60C C101U A121G U131C | -0.695 |
| A43U G63C | -2.12 |
| A43U G63A | -2.51 |
| G45C A50U | -2.42 |
| G44U C79G A91C C115A | -5.13 |
| A43G C70A | -4.41 |
| A43U A46U A105U C124G | -4.04 |
| G44C G57U G63U | -2.08 |
| G44A C53G G63U C102A A105G G117C | -7.23 |
| G44A C79A | -3.11 |
| G44A A50C G63A C85A | -4.52 |
| A43U C123G G127C | -1.59 |
| G45A A103C U106A C115G | -5.5 |
| G44A G47U C94A | -2.96 |
| G44A G45C | -3.88 |
| G44U C123A | 0.184 |
| G44U C98U U125G G127U | -3.43 |
| A43U G120A G127A U129C | -3.11 |
| G44A C72G C79A A83U U112G G122A U132C | -6.81 |
| G44A G57C G61A U112C G120A G127A | -1.81 |

| Variant | polymerase ribozyme fitness (log ratio) |
| --- | --- |
| G44A G52U G63U U87A | -5.6 |
| G44C A46C U54A C88G C97U G113C | -3.49 |
| G44U C73G C102U C124G | -1.03 |
| G44A G110U | -2.5 |
| G44A G63A C80A G110U C115G | -7.37 |
| A43U C123A G128C | -2.79 |
| A43G G60C C73A C88A | -3.87 |
| A43G U92C | -3 |
| A43G G44U A46U | -2.25 |
| A43G C56U C79G A111G | -5.35 |
| A43G C80U | -2.86 |
| G45C G51U G71C | -4.44 |
| A43U C49U U59C C70U C115U | -5.6 |
| G45A C49A | -0.473 |
| G44A G60U G117C | -5.36 |
| G44A U55C U81A | -2.83 |
| G44A A46G G52A C123A | -1.71 |
| G44U C62A C101G | -4.35 |
| G45A G69U U78C U112C U129A | 0.415 |
| G44C A91G | -1.82 |
